Measured values from article PMC2425489.

Assays:
Pbx1a;Prep1 [1] = biological target: T1, Pbx1a;Prep1 (;, UniProt P41778;P55347 1-430;1-436, |); assay: competition
T1 sequence 1: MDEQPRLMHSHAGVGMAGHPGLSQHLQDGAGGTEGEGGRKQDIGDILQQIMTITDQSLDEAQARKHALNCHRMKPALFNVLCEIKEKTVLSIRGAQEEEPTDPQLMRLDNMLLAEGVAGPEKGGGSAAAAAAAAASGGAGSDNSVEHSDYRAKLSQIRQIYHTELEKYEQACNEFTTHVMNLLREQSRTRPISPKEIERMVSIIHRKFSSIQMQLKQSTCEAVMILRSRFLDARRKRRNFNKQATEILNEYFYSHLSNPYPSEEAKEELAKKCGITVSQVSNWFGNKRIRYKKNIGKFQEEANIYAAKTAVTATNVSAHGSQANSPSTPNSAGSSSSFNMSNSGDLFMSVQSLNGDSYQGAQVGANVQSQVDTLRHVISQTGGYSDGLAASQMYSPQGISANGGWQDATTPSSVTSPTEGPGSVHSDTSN
T1 sequence 2: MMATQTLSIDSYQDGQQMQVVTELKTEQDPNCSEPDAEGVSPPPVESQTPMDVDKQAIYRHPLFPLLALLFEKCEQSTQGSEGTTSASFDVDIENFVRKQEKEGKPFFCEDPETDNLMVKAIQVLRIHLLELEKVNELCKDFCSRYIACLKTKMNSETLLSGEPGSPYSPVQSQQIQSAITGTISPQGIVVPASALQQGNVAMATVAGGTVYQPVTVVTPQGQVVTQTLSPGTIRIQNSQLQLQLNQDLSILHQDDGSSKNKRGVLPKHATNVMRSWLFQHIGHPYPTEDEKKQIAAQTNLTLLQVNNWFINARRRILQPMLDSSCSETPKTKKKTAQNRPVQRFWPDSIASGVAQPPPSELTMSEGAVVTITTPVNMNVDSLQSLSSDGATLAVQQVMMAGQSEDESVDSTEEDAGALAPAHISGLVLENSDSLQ

Hoxa2;Pbx1a [2] = biological target: T2, Hoxa2;Pbx1a (mouse?;, UniProt P31245;P41778 1-372;1-430, |); assay: competition
Hoxa1 = Hoxa1 (UniProt P09022 1-331); assay: EMSA
Hoxa1(WM-AA);Pbx1a = Hoxa1(WM-AA);Pbx1a (mouse?;, UniProt P09022;P41778 1-331;1-430, W203A;M204A|); assay: EMSA
Hoxa2(QN-AA) (Hoxa2*) = Hoxa2(QN-AA) (Hoxa2*) (UniProt P31245 1-372, Q188A;N189A); assay: EMSA
Hoxa1(WM-AA) = Hoxa1(WM-AA) (UniProt P09022 1-331, W203A;M204A); assay: EMSA
[3] = biological target: Hoxa2(QN-AA) (Hoxa2*);Pbx1a (mouse?;, UniProt P31245;P41778 1-372;1-430, Q188A;N189A|); assay: EMSA
Hoxa2 = Hoxa2 (UniProt P31245 1-372); assay: EMSA
Pbx1a;Prep1 [4] = biological target: T1, Pbx1a;Prep1; assay: EMSA
Hoxa2;Pbx1a [5] = biological target: T2, Hoxa2;Pbx1a; assay: EMSA

Measured: binding result

T2 sequence (P31245 whole entry, one chain of several): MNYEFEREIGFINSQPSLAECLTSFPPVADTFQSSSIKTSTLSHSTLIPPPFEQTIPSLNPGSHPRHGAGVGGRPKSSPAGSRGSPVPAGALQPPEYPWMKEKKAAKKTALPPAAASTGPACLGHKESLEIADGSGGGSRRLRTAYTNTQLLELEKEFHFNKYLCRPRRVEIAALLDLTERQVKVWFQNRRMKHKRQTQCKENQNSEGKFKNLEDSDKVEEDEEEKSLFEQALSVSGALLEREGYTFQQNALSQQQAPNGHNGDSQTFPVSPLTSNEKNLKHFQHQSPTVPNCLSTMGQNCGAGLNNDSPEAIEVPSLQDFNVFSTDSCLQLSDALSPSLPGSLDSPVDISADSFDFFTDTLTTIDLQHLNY
Hoxa2, sequence (P31245 whole entry): as the sequence (P31245 whole entry, one chain of several) above
Hoxa2(QN-AA) (Hoxa2*);Pbx1a, sequence (P31245 whole entry Q188A/N189A, one chain of several): as the sequence (P31245 whole entry, one chain of several) above, with Q188A, N189A counted along it
Hoxa2(QN-AA) (Hoxa2*), sequence (P31245 whole entry Q188A/N189A): as the sequence (P31245 whole entry, one chain of several) above, with Q188A, N189A counted along it
Hoxa1, sequence (P09022 whole entry): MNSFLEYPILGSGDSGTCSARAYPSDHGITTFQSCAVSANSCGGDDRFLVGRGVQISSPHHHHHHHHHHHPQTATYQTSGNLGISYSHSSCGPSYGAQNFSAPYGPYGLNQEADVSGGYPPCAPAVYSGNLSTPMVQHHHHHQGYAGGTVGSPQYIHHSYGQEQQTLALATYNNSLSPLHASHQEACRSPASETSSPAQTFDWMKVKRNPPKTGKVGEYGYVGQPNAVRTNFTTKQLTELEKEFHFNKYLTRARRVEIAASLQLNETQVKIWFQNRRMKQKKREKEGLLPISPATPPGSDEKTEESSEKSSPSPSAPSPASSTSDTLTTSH
Hoxa1(WM-AA), sequence (P09022 whole entry W203A/M204A): as the sequence (P09022 whole entry) above, with W203A, M204A counted along it
Hoxa1(WM-AA);Pbx1a, sequence (P09022 whole entry W203A/M204A, one chain of several): as the sequence (P09022 whole entry) above, with W203A, M204A counted along it

B1: comp* (unlabelled mutated HRE) (dsDNA)
DNA 1: TTTCAAAGTTGGTGGGGGAAGACCTCG
DNA 2: CGAGGTCTTCCCCCACCAACTTTGAAA
no binding: Pbx1a;Prep1 [1] | Hoxa2;Pbx1a [2]

B2: HRE (dsDNA)
DNA 1: TTTCAAAGTTCATCAATCAAGACCTCG
DNA 2: CGAGGTCTTGATTGATGAACTTTGAAA
no binding: Hoxa1 | Hoxa1(WM-AA);Pbx1a | Hoxa2(QN-AA) (Hoxa2*) | Hoxa1(WM-AA) | [3]

B3: HRE* (mutated HRE) (dsDNA)
DNA 1: TTTCAAAGTTGGTGGGGGAAGACCTCG
DNA 2: CGAGGTCTTCCCCCACCAACTTTGAAA
no binding: Hoxa2 | Pbx1a;Prep1 [4] | Hoxa2;Pbx1a [5]
